Measurements taken from patent publication US20220363748A1 (AstraZeneca / MedImmune, published 2022).

Tests used:
[1] = target: T1, EGFR-Fc (R&D Systems #344-ER-050) (UniProt P00533 25-645); experiment: ELISA: biotinylated antigen on streptavidin plate, EGFR-Fc, detection with anti-human IgG HRP
T1 construct: Bought reagent; not shown: Fc part of the bought fusion; detected with anti-human IgG
Description: (§1) Plates were washed 3×with 200 μl PBS-T (PBS +1% (v/v) Tween-20) and blocked with 300 μl/well blocking buffer (PBS with 1% BSA (Sigma, A9576)) for 1 hour. […] Plates were washed with 200 μl PBS-T three times. […] Plates were washed 3×with PBS-T and developed with TMB, 100 μl/well (Sigma, T0440). The reaction was quenched with 50 μl/well 0.1 M H2504. Absorbance was read at 450nm on the Cytation Gen5 or similar equipment.

[2] = target: T2, RAGE-Fc (R&D Systems #1145-RG) (UniProt Q15109 24-344); experiment: ELISA: biotinylated antigen on streptavidin plate, RAGE-Fc at 10 µg/mL, detection with anti-human IgG HRP
T2 construct: Bought reagent; not shown: Fc part of the bought fusion; detected with anti-human IgG
T2 sequence (Q15109 24-344 limits assumed): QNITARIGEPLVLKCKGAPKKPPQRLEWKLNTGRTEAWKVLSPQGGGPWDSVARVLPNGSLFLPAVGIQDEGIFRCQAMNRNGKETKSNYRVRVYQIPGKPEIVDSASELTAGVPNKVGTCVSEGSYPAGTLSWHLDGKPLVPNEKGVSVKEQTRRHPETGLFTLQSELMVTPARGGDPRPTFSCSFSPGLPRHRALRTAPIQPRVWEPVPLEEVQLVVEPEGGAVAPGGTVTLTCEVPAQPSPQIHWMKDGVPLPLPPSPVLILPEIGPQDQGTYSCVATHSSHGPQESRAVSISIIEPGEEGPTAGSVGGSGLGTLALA
Description: as §1

[3] = target: T2, RAGE-Fc (R&D Systems #1145-RG); experiment: ELISA: biotinylated antigen on streptavidin plate, RAGE-Fc, detection with anti-human IgG HRP
Description: as §1

[4] = target: T1, EGFR-Fc (R&D Systems #344-ER-050); experiment: ELISA: biotinylated antigen on streptavidin plate, EGFR-Fc with or without untagged RAGE, detection with anti-human IgG HRP
Description: as §1

[5] = target: T2, RAGE-Fc (R&D Systems #1145-RG); experiment: ELISA: biotinylated oxIL-33 on streptavidin plate, RAGE-Fc 10 µg/mL, anti-human IgG HRP
Description: as §1

[6] = target: T3, ST2S-Fc-His6 fusion protein (human, UniProt Q01638 19-328); experiment: depletion of remaining reduced IL-33 from the oxIL-33 preparation, in solution, then size exclusion
T3 construct: CD33 signal peptide used for secretion, not part of the protein; also called soluble human ST2S extracellular domain fused to human IgG1 Fc-His6; human ST2 ECD
T3 sequence: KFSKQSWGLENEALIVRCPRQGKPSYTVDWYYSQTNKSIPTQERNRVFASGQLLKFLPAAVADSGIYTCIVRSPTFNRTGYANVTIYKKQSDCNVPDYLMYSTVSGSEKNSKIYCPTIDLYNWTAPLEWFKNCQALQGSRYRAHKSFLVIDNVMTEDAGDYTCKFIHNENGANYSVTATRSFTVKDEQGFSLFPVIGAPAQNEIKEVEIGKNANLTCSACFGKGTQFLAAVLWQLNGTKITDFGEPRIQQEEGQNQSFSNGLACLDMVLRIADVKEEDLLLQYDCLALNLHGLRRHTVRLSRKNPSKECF

B1: HMGB1 (R&D systems 1690-HMB-050), biotinylated (ligand, UniProt P09429 1-215, looked up)
chain: MGKGDPKKPRGKMSSYAFFVQTCREEHKKKHPDASVNFSEFSKKCSERWKTMSAKEKGKFEDMAKADKARYEREMKTYIPPKGETKKKFKDPNAPKRPPSAFFLFCSEYRPKIKGEHPGLSIGDVAKKLGEMWNNTAADDKQPYEKKAAKLKEKYEKDIAAYRAKGKPDAAKKGVVKAEKSKKKKEEEEDEEDEEDEEEEEDEEDEDEEEDDDDE
modifications: biotinylated via free amines (EZ link Sulfo-NHS-LC-Biotin)
binding result [1]: no binding | binding result [2]: binds

B2: IL-33[C->S] (ligand)
cytokine: MHHHHHHHHHHAAGLNDIFEAQKIEWHEAAIEGRSITGISPITEYLASLSTYNDQSITFALEDESYEIYVEDLKKDEKKDKVLLSYYESQHPSNESGDGVDGKMLMVTLSPTKDFWLHANNKEHSVELHKSEKPLPDQAFFVLHNMHSNSVSFESKTDPGVFIGVKDNHLALIKVDSSENLSTENILFKLSET
modifications: biotinylated at the Avitag with BirA
notes: also called IL33-16
binding result [3]: no binding | binding result [4]: no binding

B3: Avitag_IL-33-01 (oxidised IL-33), biotinylated (ligand)
chain: MHHHHHHHHHHAAGLNDIFEAQKIEWHEAAIEGRSITGISPITEYLASLSTYNDQSITFALEDESYEIYVEDLKKDEKKDKVLLSYYESQHPSNESGDGVDGKMLMVTLSPTKDFWLHANNKEHSVELHKCEKPLPDQAFFVLHNMHSNCVSFECKTDPGVFIGVKDNHLALIKVDSSENLCTENILFKLSET
modifications: biotinylated on the Avitag with BirA; oxidised (disulphide bonded) form of IL-33
notes: also called oxIL-33; oxidised IL-33-01
binding result [5]: binds

B4: Biotinylated EGF (Thermo) (ligand, UniProt P01133 971-1023, looked up)
chain: NSDSECPLSHDGYCLHDGVCMYIEALDKYACNCVVGYIGERCQYRDLKWWELR
modifications: biotinylated (bought so)
binding result [3]: no binding

B5: Untagged IL33-01 (reduced IL-33) (ligand)
chain: SITGISPITEYLASLSTYNDQSITFALEDESYEIYVEDLKKDEKKDKVLLSYYESQHPSNESGDGVDGKMLMVTLSPTKDFWLHANNKEHSVELHKCEKPLPDQAFFVLHNMHSNCVSFECKTDPGVFIGVKDNHLALIKVDSSENLCTENILFKLSET
notes: also called redIL-33; wild type IL-33
binding result [6]: binds
